B1: Thermus thermophilus ClpB, wild type (natural protein)
chain: not shown
notes: ClpB of Thermus thermophilus, cloned into pET28b with a six-histidine tag preceded by a TEV site; Homohexamer; also called TT ClpB; WT; source: E. coli BL21 (DE3) pLysS, purified (Ni-NTA, HiPrep DEAE FF)
B2: ClpB S428C-S771C, double-labeled subunit (natural protein)
chain: not shown
modifications: Alexa 488 C5 maleimide (donor) and Alexa 594 C5 maleimide (acceptor) on the cysteines at 428 and 771
notes: ClpB of Thermus thermophilus with two cysteines for the dyes; S428C-S771C is the main construct; also called double-labeled subunits; labeled ClpB; source: E. coli BL21 (DE3) pLysS, purified (Ni-NTA, HiPrep DEAE FF), labeled

Assays:
[1] = molecular target: the molecule itself; test: not stated; test of hexamer assembly shown in Supplementary Figs. 3 and 13 and the supplementary section “Validating the structural integrity of ClpB hexamers”; 2 mM ATP for the labeled sample
[2] = molecular target: B1; test: native gel or EMSA + SEC; native gel electrophoresis and gel filtration chromatography of reassembled mixed labeled ClpB and of the WT; conditions: both partners purified

binding result [2]	Binder	stoichiometry N [1]
–	B1	6
binds	B2	–

Source: article PMC6440998, “Tunable microsecond dynamics of an allosteric switch regulate the activity of a AAA+ disaggregation machine” (Nature Communications, 2019)
